These results are taken from PMC11594316, “Novel DNA Aptamers to Dickkopf-1 Protein and Their Application in Colorimetric Sandwich Assays for Target Detection in Patients with Axial Spondyloarthritis”.

This data set has as its target T1, Dickkopf-1 (DKK-1) (human, UniProt O94907 32-266).
T1 sequence: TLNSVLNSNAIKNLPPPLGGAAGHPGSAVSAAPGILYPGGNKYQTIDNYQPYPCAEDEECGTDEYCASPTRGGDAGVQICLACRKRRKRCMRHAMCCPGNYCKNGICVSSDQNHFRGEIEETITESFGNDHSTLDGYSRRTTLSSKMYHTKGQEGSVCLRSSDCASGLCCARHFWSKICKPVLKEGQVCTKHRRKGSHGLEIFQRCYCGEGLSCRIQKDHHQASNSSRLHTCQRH
The data set is described as follows: ELASA; ELASA: DKK-1 coated at 2 ug/mL, BSA-blocked; aptamer 3.12-100 nM in PBSMT (1x PBS pH 7.4, 5 mM MgCl2, 0.05% Tween 20), 1 h, 25 C. To be noted: protein: commercial, tags: N-terminal His-tag (stated for the selection protein), label: biotin.

B1: DK2_58t (ssDNA)
DNA: CGACTCGGTGTACCCGCATAGACCCTGCGTCCGCTGTATGTACACGTAAGCCCTGTCG
modifications: 3'-amino linker (C6, Spacer 18)
For orientation: Kd means the concentration at which binding is half-saturated. Read a low Kd as tighter binding. In turn, B1 gave a Kd (three-way junction) of 3.6 ± 2 nM.

B2: DK4_41t (ssDNA)
DNA: CCTCGGAGTGCGTACAGCAAGCACATATGTGCTCTCCCAGG
modifications: 3'-amino linker (C6, Spacer 18)
Take B2: binding (three-way junction) was put at a Kd of 5.6 ± 3 nM.

B3: DK4_50t (ssDNA)
DNA: CACGACTCGGAGTGCGTACAGCAAGCACATATGTGCTCTCCCAGAGCGTG
modifications: 3'-amino linker (C6, Spacer 18)
Under “three-way junction”, B3 displayed a Kd of 6.1 ± 2 nM.

B4: DK2_48t (ssDNA)
DNA: CGGTGTACCCGCATAGACCCTGCGTCCGCTGTATGTACACGTAAGCCG
modifications: 3'-amino linker (C6, Spacer 18)
Consider B4, for which binding (three-way junction) was characterised by a dissociation constant (Kd) of 3.3 ± 2 nM.

B5: DK1_48t (ssDNA)
DNA: CGGCATGTATCTGGCTGCTGAGTGTACGATTCCAGTATATATGAGCCG
modifications: 3'-amino linker (C6, Spacer 18)
Under “stem-loop”, B5 returned a Kd of 10 ± 6 nM.
